The supplement of paper PMC7877785
± gives the uncertainty stated by the source.

Assay: self-splicing fitness, log relative to wild type (ln ratio); higher = more splicing; Tetrahymena group I intron in knt gene, E. coli kanamycin selection, DiMSum; sequences stand for … in CUCUCU…GGAGGGAAAAGUUAUCAGGCAUGCACCUGGUAGCUAGUCUUUAAACCAAUAGAUUGCAUCGGUUUAAAAGGCAAGACCGUCAAAUUGCGGGAAAGGGGUCAACAGCCGUUCAGUACCAAGUCUCAGGGGAAACUUUGAGAUGGCCUUGCAAAGGGUAUGGUAAUAAGCUGACGGACAUGGUCCUAACCACGCAGCCAAGUCCUAAGUCAACAGAUCUUCUGUUGAUAUGGAUGCAGUUCACAGACUAAAUGUCGGUCGGGGAAGAUGUAUUCUUCUCAUAAGAUAUAGUCGGACCUCUCCUUAAUGGGAGCUAGCGGAUGAAGUGAUGCAACACUGGAGCCGCUGGGAACUAAUUUGUAUGCGAAAGUAUAUUGAUUAGUUUUGGAGUACUCGUGGUCG
How it was run: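 Fitness was computed with DiMSum as the error-weighted combination of replicate fold changes, kanamycin versus none, each normalised to wild type. The library randomised all eight intron nucleotides of the P1ex region, with the intron placed in the knt kanamycin-resistance gene on pET-22b(+) in E. coli BL21(DE3). Six replicate transformations were grown overnight at 37°C or 30°C on LB agar with or without 25 μg/mL kanamycin, plus 100 μg/mL carbenicillin, 50 μM IPTG and 0.2% rhamnose. Pooled colonies were amplicon-sequenced on an Illumina HiSeq 2500.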

Row | Sequence | self-splicing fitness (ln) (30 °C) | self-splicing fitness (ln) (37 °C)
1 | CUAUAGCAAUAUUACGGCUG | -1.02 ± 0.12 | -0.165 ± 0.15
2 | CUAUAGCAAUAUUACGGGAU | -3.92 ± 0.25 | -0.972 ± 0.16
3 | CUAUAGCAAUAUUACGGGUC | -3.19 ± 0.29 | -2.05 ± 0.28
4 | CUAUAGCAAUAUUACGGGUG | -0.36 ± 0.061 | 0.369 ± 0.085
5 | CUAUAGCAAUAUUACGGUCA | -1.82 ± 0.19 | -1.7 ± 0.24
6 | CUAUAGCAAUAUUACGGUGA | -3.35 ± 0.18 | -2.59 ± 0.23
7 | CUAUAGCAAUAUUACGGUUC | -3.27 ± 0.25 | -2.12 ± 0.39
8 | CUAUAGCAAUAUUACGUACU | -3.66 ± 0.47 | –
9 | CUAUAGCAAUAUUACGUAUU | -3.8 ± 0.32 | –
10 | CUAUAGCAAUAUUACGUCAA | -3.16 ± 0.2 | -2.7 ± 0.23
11 | CUAUAGCAAUAUUACGUCGC | -3.75 ± 0.24 | –
12 | CUAUAGCAAUAUUACGUGAG | -0.571 ± 0.057 | -0.137 ± 0.086
13 | CUAUAGCAAUAUUACGUGCU | -3.61 ± 0.33 | -2.56 ± 0.32
14 | CUAUAGCAAUAUUACGUGUA | -2.77 ± 0.33 | -2.55 ± 0.26
15 | CUAUAGCAAUAUUACGUUUC | -3.68 ± 0.23 | -2.86 ± 0.31
16 | CUCAAGCAAUAUUACGAAGC | -3.4 ± 0.28 | -2.56 ± 0.35
17 | CUCAAGCAAUAUUACGAGGU | – | -1.19 ± 0.18
18 | CUCAAGCAAUAUUACGAGUA | -3.49 ± 0.28 | -2.41 ± 0.23
19 | CUCAAGCAAUAUUACGAUGA | -1.31 ± 0.11 | -2.07 ± 0.16
20 | CUCAAGCAAUAUUACGCAGA | -3.06 ± 0.5 | -2.41 ± 0.21
21 | CUCAAGCAAUAUUACGCCGG | -2.92 ± 0.38 | -1.53 ± 0.31
22 | CUCAAGCAAUAUUACGCGUC | -4.33 ± 0.39 | -1.37 ± 0.16
23 | CUCAAGCAAUAUUACGCUAG | -4.26 ± 0.32 | -2.35 ± 0.14
24 | CUCAAGCAAUAUUACGCUCU | -4.12 ± 0.25 | -2.39 ± 0.21
25 | CUCAAGCAAUAUUACGGACG | -0.792 ± 0.063 | 0.266 ± 0.095

Row | Sequence | self-splicing fitness (ln) (30 °C) | self-splicing fitness (ln) (37 °C)
26 | CUCAAGCAAUAUUACGGAUG | -1.48 ± 0.088 | -1.05 ± 0.13
27 | CUCAAGCAAUAUUACGGCGC | – | -0.598 ± 0.19
28 | CUCAAGCAAUAUUACGGCUC | -3.53 ± 0.26 | -1.34 ± 0.21
29 | CUCAAGCAAUAUUACGGGUA | -2.42 ± 0.14 | -1.01 ± 0.1
30 | CUCAAGCAAUAUUACGGUGG | -2.01 ± 0.061 | -1.1 ± 0.081
31 | CUCAAGCAAUAUUACGGUUU | -2.38 ± 0.1 | -2.36 ± 0.14
32 | CUCAAGCAAUAUUACGUACA | -3.5 ± 0.23 | -1.83 ± 0.18
33 | CUCAAGCAAUAUUACGUGCU | -4.3 ± 0.24 | -2.73 ± 0.17
34 | CUCAAGCAAUAUUACGUGUU | -3.89 ± 0.23 | -2.76 ± 0.22
35 | CUCAAGCAAUAUUACGUUAA | -4.15 ± 0.3 | -2.76 ± 0.19
36 | CUCCAGCAAUAUUACGAAAG | -0.942 ± 0.11 | -1.41 ± 0.14
37 | CUCCAGCAAUAUUACGACCG | -0.451 ± 0.12 | -1.15 ± 0.2
38 | CUCCAGCAAUAUUACGACGG | -3.56 ± 0.23 | -2.42 ± 0.24
39 | CUCCAGCAAUAUUACGACUU | -3.85 ± 0.26 | -2.15 ± 0.19
40 | CUCCAGCAAUAUUACGAGAC | -4.42 ± 0.46 | -3.28 ± 0.37
41 | CUCCAGCAAUAUUACGAGAG | -4.68 ± 0.31 | -1.32 ± 0.13
42 | CUCCAGCAAUAUUACGAGAU | -2.99 ± 0.19 | -3.15 ± 0.21
43 | CUCCAGCAAUAUUACGAGUC | -3.83 ± 0.34 | -2.15 ± 0.26
44 | CUCCAGCAAUAUUACGAUCC | -4.16 ± 0.47 | -1.49 ± 0.32
45 | CUCCAGCAAUAUUACGAUUC | -4.14 ± 0.18 | -2.72 ± 0.19
46 | CUCCAGCAAUAUUACGAUUU | -3.75 ± 0.2 | -2.08 ± 0.15
47 | CUCCAGCAAUAUUACGCAGG | -3.95 ± 0.21 | -2.83 ± 0.27
48 | CUCCAGCAAUAUUACGCGGU | -4.01 ± 0.23 | -3.96 ± 0.25
49 | CUCCAGCAAUAUUACGCUGU | -4.01 ± 0.34 | -2.97 ± 0.34
